We go through seven molecules from patent publication US20230395193A1 (priority 2020, published 2023).

The chains are these.
B1: E-Q9NPI6 (protein, UniProt Q9NPI6 1-582, looked up)
mRNA-decapping enzyme 1A: MEALSRAGQEMSLAALKQHDPYITSIADLTGQVALYTFCPKANQWEKTDIEGTLFVYRRSASPYHGFTIVNRLNMHNLVEPVNKDLEFQLHEPFLLYRNASLSIYSIWFYDKNDCHRIAKLMADVVEEETRRSQQAARDKQSPSQANGCSDHRPIDILEMLSRAKDEYERNQMGDSNISSPGLQPSTQLSNLGSTETLEEMPSGSQDKSAPSGHKHLTVEELFGTSLPKEQPAVVGLDSEEMERLPGDASQKEPNSFLPFPFEQLGGAPQSETLGVPSAAHHSVQPEITTPVLITPASITQSNEKHAPTYTIPLSPVLSPTLPAEAPTAQVPPSLPRNSTMMQAVKTTPRQRSPLLNQPVPELSHASLIANQSPFRAPLNVTNTAGTSLPSVDLLQKLRLTPQHDQIQTQPLGKGAMVASFSPAAGQLATPESFIEPPSKTAAARVAASASLSNMVLAPLQSMQQNQDPEVFVQPKVLSSAIPVAGAPLVTATTTAVSSVLLAPSVFQQTVTRSSDLERKASSPSPLTIGTPESQRKPSIILSKSQLQDTLIHLIKNDSSFLSTLHEVYLQVLTKNKDNHNL
modifications: interactor of SARS-CoV-2 E
B2: M-Q4KMQ2 (protein, UniProt Q4KMQ2 1-910, looked up)
Anoctamin-6: MKKMSRNVLLQMEEEEDDDDGDIVLENLGQTIVPDLGSLESQHDFRTPEFEEFNGKPDSLFFNDGQRRIDFVLVYEDESRKETNKKGTNEKQRRKRQAYESNLICHGLQLEATRSVLDDKLVFVKVHAPWEVLCTYAEIMHIKLPLKPNDLKNRSSAFGTLNWFTKVLSVDESIIKPEQEFFTAPFEKNRMNDFYIVDRDAFFNPATRSRIVYFILSRVKYQVINNVSKFGINRLVNSGIYKAAFPLHDCKFRRQSEDPSCPNERYLLYREWAHPRSIYKKQPLDLIRKYYGEKIGIYFAWLGYYTQMLLLAAVVGVACFLYGYLNQDNCTWSKEVCHPDIGGKIIMCPQCDRLCPFWKLNITCESSKKLCIFDSFGTLVFAVFMGVWVTLFLEFWKRRQAELEYEWDTVELQQEEQARPEYEARCTHVVINEITQEEERIPFTAWGKCIRITLCASAVFFWILLIIASVIGIIVYRLSVFIVFSAKLPKNINGTDPIQKYLTPQTATSITASIISFIIIMILNTIYEKVAIMITNFELPRTQTDYENSLTMKMFLFQFVNYYSSCFYIAFFKGKFVGYPGDPVYWLGKYRNEECDPGGCLLELTTQLTIIMGGKAIWNNIQEVLLPWIMNLIGRFHRVSGSEKITPRWEQDYHLQPMGKLGLFYEYLEMIIQFGFVTLFVASFPLAPLLALVNNILEIRVDAWKLTTQFRRLVPEKAQDIGAWQPIMQGIAILAVVTNAMIIAFTSDMIPRLVYYWSFSVPPYGDHTSYTMEGYINNTLSIFKVADFKNKSKGNPYSDLGNHTTCRYRDFRYPPGHPQEYKHNIYYWHVIAAKLAFIIVMEHVIYSVKFFISYAIPDVSKRTKSKIQREKYLTQKLLHENHLKDMTKNMGVIAERMIEAVDNNLRPKSE
B3: M-Q68DH5 (protein, UniProt Q68DH5 1-695, looked up)
G-protein coupled …: MSGAALGLEIVFVFFLALFLLHRYGDFKKQHRLVIIGTLLAWYLCFLIVFILPLDVSTTIYNRCKHAAANSSPPENSNITGLYATANPVPSQHPCFKPWSYIPDGIMPIFWRVVYWTSQFLTWILLPFMQSYARSGGFSITGKIKTALIENAIYYGTYLLIFGAFLIYVAVNPHLHLEWNQLQTIGIAAANTWGLFLLVLLLGYGLVEIPRSYWNGAKRGYLLMKTYFKAAKLMTEKADAEENLEDAMEEVRKVNESIKYNHPLRKCVDTILKKCPTEYQEKMGRNMDDYEDFDEKHSIYPSEKSLVKLHKQVIYSVQRHRRTQVQWQILLEQAFYLEDVAKNETSATHQFVHTFQSPEPENRFIQYFYNPTFEWYWECLLRPWFYKILAVVLSIFSVIVVWSECTFFSTTPVLSLFAVFIQLAEKTYNYIYIEIACFLSIFFLSICVYSTVFRIRVFNYYYLASHHQTDAYSLLFSGMLFCRLTPPLCLNFLGLTHMDSSISHKNTQPTAYTSIMGSMKVLSFIADGFYIYYPMLVVILCIATYFSLGTRCLNLLGFQQFMGDDDMTSDLVNEGKELIRKEKRKRQRQEEGENRRREWKERYGHNREDSTRNRNIHTDPKESNFSDVNTNRSAFKYTRANNRTERDRIELLQDAEPLDFNAETFTDDPLESESGRYQPGGRYLSMSRSDIFNDV
modifications: interaction partner of SARS-CoV-2 M
B4: E-Q8WY22 (protein, UniProt Q8WY22 1-251, looked up)
BRI3-binding protein: MGARASGGPLARAGLLLLLLLLLLLGLLAPGAQGARGRGGAEKNSYRRTVNTFSQSVSSLFGEDNVRAAQKFLARLTERFVLGVDMFVETLWKVWTELLDVLGLDVSNLSQYFSPASVSSSPARALLLVGVVLLAYWFLSLTLGFTFSVLHVVFGRFFWIVRVVLFSMSCVYILHKYEGEPENAVLPLCFVVAVYFMTGPMGFYWRSSPSGPSNPSNPSVEEKLEHLEKQVRLLNIRLNRVLESLDRSKDK
modifications: prey of SARS-CoV-2 E
B5: M-Q5BJH7 (protein, UniProt Q5BJH7 1-314, looked up)
Protein YIF1B: MHPAGLAAAAAGTPRLRKWPSKRRIPVSQPGMADPHQLFDDTSSAQSRGYGAQRAPGGLSYPAASPTPHAAFLADPVSNMAMAYGSSLAAQGKELVDKNIDRFIPITKLKYYFAVDTMYVGRKLGLLFFPYLHQDWEVQYQQDTPVAPRFDVNAPDLYIPAMAFITYVLVAGLALGTQDRFSPDLLGLQASSALAWLTLEVLAILLSLYLVTVNTDLTTIDLVAFLGYKYVGMIGGVLMGLLFGKIGYYLVLGWCCVAIFVFMIRTLRLKILADAAAEGVPVRGARNQLRMYLTMAVAAAQPMLMYWLTFHLVR
B6: E-Q9BTV4 (protein, UniProt Q9BTV4 2-400, looked up)
Transmembrane protein 43: AANYSSTSTRREHVKVKTSSQPGFLERLSETSGGMFVGLMAFLLSFYLIFTNEGRALKTATSLAEGLSLVVSPDSIHSVAPENEGRLVHIIGALRTSKLLSDPNYGVHLPAVKLRRHVEMYQWVETEESREYTEDGQVKKETRYSYNTEWRSEIINSKNFDREIGHKNPSAMAVESFMATAPFVQIGRFFLSSGLIDKVDNFKSLSLSKLEDPHVDIIRRGDFFYHSENPKYPEVGDLRVSFSYAGLSGDDPDLGPAHVVTVIARQRGDQLVPFSTKSGDTLLLLHHGDFSAEEVFHRELRSNSMKTWGLRAAGWMAMFMGLNLMTRILYTLVDWFPVFRDLVNIGLKAFAFCVATSLTLLTVAAGWLFYRPLWALLIAGLALVPILVARTRVPAKKLE
B7: M-Q5JRX3 (protein, UniProt Q5JRX3 29-1037, looked up)
Presequence protease, …: NSNRACERALQYKLGDKIHGFTVNQVTSVPELFLTAVKLTHDDTGARYLHLAREDTNNLFSVQFRTTPMDSTGVPHILEHTVLCGSQKYPCRDPFFKMLNRSLSTFMNAFTASDYTLYPFSTQNPKDFQNLLSVYLDATFFPCLRELDFWQEGWRLEHENPSDPQTPLVFKGVVFNEMKGAFTDNERIFSQHLQNRLLPDHTYSVVSGGDPLCIPELTWEQLKQFHATHYHPSNARFFTYGNFPLEQHLKQIHEEALSKFQKIEPSTVVPAQTPWDKPREFQITCGPDSFATDPSKQTTISVSFLLPDITDTFEAFTLSLLSSLLTSGPNSPFYKALIESGLGTDFSPDVGYNGYTREAYFSVGLQGIAEKDIETVRSLIDRTIDEVVEKGFEDDRIEALLHKIEIQMKHQSTSFGLMLTSYIASCWNHDGDPVELLKLGNQLAKFRQCLQENPKFLQEKVKQYFKNNQHKLTLSMRPDDKYHEKQAQVEATKLKQKVEALSPGDRQQIYEKGLELRSQQSKPQDASCLPALKVSDIEPTIPVTELDVVLTAGDIPVQYCAQPTNGMVYFRAFSSLNTLPEELRPYVPLFCSVLTKLGCGLLDYREQAQQIELKTGGMSASPHVLPDDSHMDTYEQGVLFSSLCLDRNLPDMMQLWSEIFNNPCFEEEEHFKVLVKMTAQELANGIPDSGHLYASIRAGRTLTPAGDLQETFSGMDQVRLMKRIAEMTDIKPILRKLPRIKKHLLNGDNMRCSVNATPQQMPQTEKAVEDFLRSIGRSKKERRPVRPHTVEKPVPSSSGGDAHVPHGSQVIRKLVMEPTFKPWQMKTHFLMPFPVNYVGECIRTVPYTDPDHASLKILARLMTAKFLHTEIREKGGAYGGGAKLSHNGIFTLYSYRDPNTIETLQSFGKAVDWAKSGKFTQQDIDEAKLSVFSTVDAPVAPSDKGMDHFLYGLSDEMKQAHREQLFAVSHDKLLAVSDRYLGTGKSTHGLAILGPENPKIAKDPSWIIQ
modifications: interactor of viral M protein

The test has as its system SARS-CoV-1, MERS-CoV and SARS-CoV-2 proteins in HEK293T cells. Further details: species or system human.
In the case of B1, the MIST_MERS turned out to be 0.9797, the MIST_SARS1 was determined as 0, the MIST_SARS2 was determined as 0 and the Saint_MERS worked out at 1. The Saint_SARS1 is 0 and the Saint_SARS2 is 0.
As for B2, the MIST_MERS was 0, the MIST_SARS1 was 0.864, the MIST_SARS2 came to 0.9939 and the Saint_MERS was found to be 0. Moreover, the Saint_SARS1 is reported as 0.32 and the Saint_SARS2 is 1.
B3: the MIST_MERS is given as 0.9869, the MIST_SARS1 came to 0.6855, the MIST_SARS2 is given as 0.2449 and the Saint_MERS was 0.95. For the same molecule, the Saint_SARS1 was found to be 0 and the Saint_SARS2 turned out to be 0.
With B4, the MIST_MERS was determined as 0.9912, the MIST_SARS1 turned out to be 0, the MIST_SARS2 is 0 and the Saint_MERS turned out to be 1. Further, the Saint_SARS1 came out at 0 and the Saint_SARS2 was 0.
B5: the MIST_MERS was 0.3712, the MIST_SARS1 is recorded as 0.9893, the MIST_SARS2 came out at 0.5979 and the Saint_MERS was 0. The Saint_SARS1 came out at 0.97 and the Saint_SARS2 is on record as 1.
On to B6, for which the MIST_MERS was 0.8753, the MIST_SARS1 was 0, the MIST_SARS2 is on record as 0 and the Saint_MERS was 1. In addition, the Saint_SARS1 is on record as 0 and the Saint_SARS2 came out at 0.
In turn, B7 registered an MIST_MERS of 0, an MIST_SARS1 of 0.001111, an MIST_SARS2 of 0.9523 and a Saint_MERS of 0. Further, the Saint_SARS1 is listed as 0 and the Saint_SARS2 amounted to 1.
